The values that follow come from the supplement of paper PMC9170038.

For this series, the system named is MS2 coat protein. In words: apparent KD of MS2 coat protein; designed switch direction (-1 OFF switch, 1 ON switch): -1; higher = weaker reporter binding. The procedure, abridged:
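The reported apparent KD is a per-design median over clusters, from curve fits of normalised cluster fluorescence. Protein titrations used SNAP-549-labelled MS2 coat protein, doubled from 0.7 or 1.5 nM to 3 µM, in Tris-HCl pH 7.5 buffer with KCl, MgCl2, BSA, DTT, tRNA and Tween-20, with no input, 200 uM small-molecule ligand, or an oligonucleotide input. The RNA switches were transcribed on Illumina chips by stalled E. coli RNA polymerase.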

Where [1] appears, read: input ligand: microRNA oligo, concentration not stated.
Where [2] appears, read: Eterna round: R95, input ligand: FMN 200 uM.
Setting [3] is: Eterna round: R95, input ligand: microRNA oligo, concentration not stated.
[4] abbreviates: Eterna round: R95, input ligand: none.

For “AUAAAUCAUGUAGGAUAUGCGUGGCGAAGCUAUGCAGAAGGACAUGAGGAUCACCCAUGUGCUUCCGUCUGCGUACAGACGGAA [Mat - Exclusion NG 1 - Mod of JL - D35] (Eterna round: R96, puzzle: Exclusion NG 1)”, the “apparent KD of MS2 coat protein” value reads like this: (input ligand: FMN 200 uM) 64.8 nM; under setting [1], 228 nM; (input ligand: none) 190 nM.
As to “CUUAAGUUAGGAUAUGCGCUACGGAAUCGUGGUUAUAGACAGCAGAAGGAACUUGAGGAUCACCCAAGUAAAUA [Inatsoce] (Eterna round: R97, puzzle: Exclusion 4)”, the “apparent KD of MS2 coat protein” value was determined as 89.2 nM (input ligand: FMN 200 uM) and 108 nM (input ligand: none).
For the sequence “AAUUCUAGGGUCAGACGCACAAGCUUUUUGUUCGUUUUAACAUGAGGAUCACCCAUGUCUAGUGGAUCUGAUCGGGC [JL ViennaUCT Isreen mod 9] (puzzle: Sensor v3, turn-off variant 2)”, the “apparent KD of MS2 coat protein” value by setting is: under setting [2], 28.6 nM; under setting [3], 71.4 nM; under setting [4], 31 nM.
As for “AGUGCGUAUGUGAGGAUAUGCUGGUCCUUGGCUCGGCAGAAGGCACAUGAGGAUCACCCAUGUGGUGUCGUACC [salish99_Bmod_ex4_059] (puzzle: Brourd's mod of Exclusion 4)”, the “apparent KD of MS2 coat protein” value under setting [3] was found to be 25 nM.
Consider “CGUGACUCAGGAUAUCUAUUGUAUCACAUGAGGAUCACCCAUGUCCAGCGAAAGCUGGAGGGAGAAGGGAGUCACG [Fiskers Ex 5 - 46] (puzzle: Exclusion 5)”, for which the “apparent KD of MS2 coat protein” value by setting is: under setting [2], 48.6 nM; under setting [3], 204 nM; under setting [4], 186 nM.
With “ACAUGUGUUGUAGGAUAUAGGACACAUGAGGAUCACCCAUGUGGAUUCAUGUCUAAGGAAGCGUCCUAGAAGGACGACAACAUG [Ex NG2 #26] (Eterna round: R96, puzzle: Exclusion NG 2)”, the “apparent KD of MS2 coat protein” value runs as follows: (input ligand: FMN 200 uM) 29.1 nM; under setting [1], 16.3 nM; (input ligand: none) 20 nM.
As for “AGGAGUGAAGGAUAUACAUGAGGAUCACCCAUGUGGGAGGAAAGAGGUGAUGGAGAUAGUAGAAGGUCAGGAUG [JR_Exclusion3_Sub005] (puzzle: Exclusion 3)”, the “apparent KD of MS2 coat protein” value reads like this: under setting [2], 99.9 nM; under setting [3], 93.9 nM; under setting [4], 116 nM.
Turning to “ACGCAUUGCCUUUGGUAGUGCGUUACAUGAGGAUCACCCAUGUAGGAUAUGGUAGGCAAAGCUUACCAGAAGGACAUGAUAAUU [Mat - Exclusion NG 3 - Mod of JL - D5] (Eterna round: R96, puzzle: Exclusion NG 3)”, the “apparent KD of MS2 coat protein” value under setting [1] amounted to 41.8 nM.
On to “UAUUAGCAAGUAAGAUCCCACAUGAGGAUCACCCAUGUGCUCGUCUUAUAAGGUACUGUGACGAAAGUCACGGUACC [Sensor 3, v1 - 88] (puzzle: Sensor v3, turn-off variant 1)”, for which the “apparent KD of MS2 coat protein” value was determined as 12.6 nM under setting [2], 1040 nM under setting [3] and 16.5 nM under setting [4].
“UUUUGAUGAGGAUAUCGAGGUUAGUACAUGAGGAUCACCCAUGUUAUCCAGGUGUCGGUUCGAGAAGGUAUUGGAC [LRO-Ex5-16] (puzzle: Exclusion 5)”: the “apparent KD of MS2 coat protein” value under setting [3] is 16 nM.
For “CGGUCGUCCUCAGGAUAUACAUGAGGAUCACCCAUGUUUCUAGGAUCGGUCGUCCGGUCGGUGGUGUAGAAGGGAGGGUGGCUG [random 2, A 18%] (Eterna round: R96, puzzle: Exclusion NG 2)”, the “apparent KD of MS2 coat protein” value was 159 nM (input ligand: FMN 200 uM), 37.1 nM under setting [1] and 43.6 nM (input ligand: none).
With “ACAAGCUUUUUGCUCGGGUACAUGAGGAUCACCCAUGUUGUGUUUUAUUGUUUUUGAUUGUUCGUGCGCUGCAGGUU [JR_SV3TOV1_Sub074] (puzzle: Sensor v3, turn-off variant 1)”, the “apparent KD of MS2 coat protein” value reads like this: under setting [2], 42.7 nM; under setting [3], 38.5 nM; under setting [4], 58.3 nM.
The matching figures for “GGUUGACAUGAGGAUCACCCAUGUGAGGAUAUGCGAGAGAAAAAAGUGAGGAAGAGAUGCAGAAGGCGCUGUCG [salish99-ex1_r3_016] (puzzle: Exclusion 1)”: 68.5 nM, 85.8 nM and 121 nM.
As to “GCGAAUAACGAGGAUAUCGUAUCGGAAACGAUACGAGAAGGUGUAACAUGAGGAUCACCCAUGUUCCUCAACGC [Fiskers Ex 6 - 7] (puzzle: Exclusion 6)”, under setting [3], the “apparent KD of MS2 coat protein” value was 33.1 nM.
For “CAAGAAAAGAAAGGAUAUAGCGCGGAGCCGCAGCUAGAAGGUUCGGUGGGUAUCCUGUAACAUGAGGAUCACCCAUGUAAAGAG [Texelara] (Eterna round: R96, puzzle: Exclusion NG 1)”, the “apparent KD of MS2 coat protein” value runs as follows: (input ligand: FMN 200 uM) 499 nM; under setting [1], 109 nM; (input ligand: none) 527 nM.
As for “AUCAUGUAAGGAUAUCUUACAUGUAUCGAAAGAUACAGUUAAGAGAAGGUACAUGAGGAUCACCCAUGUAUAAC [Ex4-3: 35] (puzzle: Exclusion 4)”, the “apparent KD of MS2 coat protein” value under setting [3] was determined as 25.2 nM.
With “AUCGUGCAGCUUUGCUGUACGAGUACAUGAGGAUCACCCAUGUAGGAUAUGGUACGCUUUGCGUGCUAGAAGGAUAUGCGAUUU [EX ENG3 1.47] (Eterna round: R96, puzzle: Exclusion NG 3)”, the “apparent KD of MS2 coat protein” value was found to be 31.4 nM (input ligand: FMN 200 uM), 23.9 nM under setting [1] and 34.6 nM (input ligand: none).
As to “AUAAUGUGAGGAUAUCAGUCGACUAGCUUCGGCUAGUCGACUGAGAAGGCACAUGAGGAUCACCCAUGUGUUUC [E4/15-A1] (Eterna round: R97, puzzle: Exclusion 4)”, the “apparent KD of MS2 coat protein” value came to 41.7 nM (input ligand: FMN 200 uM) and 18.7 nM (input ligand: none).
Consider “CCGGAAAUAGAGGAUAUAGGACUCGAUAGAGUCCUAGAAGGCUAUACAUGAGGAUCACCCAUGUGUCCUACCGG [Fiskers Ex 6 - 64] (puzzle: Exclusion 6)”, for which the “apparent KD of MS2 coat protein” value reads like this: under setting [2], 40.7 nM; under setting [3], 13.6 nM; under setting [4], 13.4 nM.
Regarding “AUUGGACACUCAGGAUAUCAGGUUCUAUACAUGAGGAUCACCCAUGUGGGCGAACCCAUGAUAGCUGAGAAGGGAGUAAUCCUA [Orxete] (Eterna round: R96, puzzle: Exclusion NG 2)”, the “apparent KD of MS2 coat protein” value runs as follows: (input ligand: FMN 200 uM) 39 nM; under setting [1], 11.9 nM; (input ligand: none) 19.4 nM.
For “AGUACUAUGCGUGCUGACAUGCGUAGUGCAGCAGGUGUUACAUGAGGAUCACCCAUGUCCUCAUUUGCUCGUCUUAU [Mat - Sensor v3 - Turn-off var 2 - D15] (puzzle: Sensor v3, turn-off variant 2)”, the “apparent KD of MS2 coat protein” value by setting is: under setting [2], 75.7 nM; under setting [3], 79.2 nM; under setting [4], 80.4 nM.
Take “AUACAACAUGAGGAUCACCCAUGUGAGGAUAUGCGAUACAUCAUCAUCAUCAUCAAUCGCAGAAGGCACAACAU [Different] (puzzle: Exclusion 1)”: under setting [3], the “apparent KD of MS2 coat protein” value was determined as 52.3 nM.
Consider “UAUUAGCAAGUAAGAUCCCACAUGAGGAUCACCCAUGUGCUCGUCUUAUAAGGUACUGUGACGAAAGUCACGGUACC [Sensor 3, v1 - 95 v1] (Eterna round: R97, puzzle: Sensor, turn-off variant 1)”, for which the “apparent KD of MS2 coat protein” value turned out to be 18.3 nM (input ligand: FMN 200 uM) and 19.2 nM (input ligand: none).
Consider “UAAUUAAGUGUGAGGAUAUGCUGGUCCUUGGAUCAGCAGAAGGCACAUGAGGAUCACCCAUGUAAUAUAUAUAU [Mat - Exclusion 4 - JL Mod - D53] (puzzle: Brourd's mod of Exclusion 4)”, for which the “apparent KD of MS2 coat protein” value under setting [2] stood at 361 nM, the “apparent KD of MS2 coat protein” value under setting [3] amounted to 108 nM and the “apparent KD of MS2 coat protein” value under setting [4] came to 104 nM.
Consider “CCAUAUAACUGAGGAUAUGAUCACCACUAACAUUCAGAAGGCAGACAUGAGGAUCACCCAUGUGAUUUCUCAAUAUUAUACAUC [Prohibition 76 - Jieux - Exclusion NG 1] (Eterna round: R96, puzzle: Exclusion NG 1)”, for which the “apparent KD of MS2 coat protein” value under setting [1] came to 375 nM.
“AGUAACUAUCACGAAAGUGAUAGUUACAAAAGCAGUGAAACAUGAGGAUCACCCAUGUCCUCAUUUGCUCGUCUUAU [Sensor 3 - 24] (puzzle: Sensor v3, turn-off variant 2)”: the “apparent KD of MS2 coat protein” value under setting [2] was determined as 53.4 nM, the “apparent KD of MS2 coat protein” value under setting [3] was found to be 576 nM and the “apparent KD of MS2 coat protein” value under setting [4] was determined as 66.5 nM.
Turning to “ACUCAACAGUAGGAUAUCAUCAAACUAUUGUGAUGAGAAGGACUGACAUGAGGAUCACCCAUGUUAACGUGAUG [Mod of Brourd 2 - Jieux - Exclusion 6] (Eterna round: R97, puzzle: Exclusion 6)”, the “apparent KD of MS2 coat protein” value was found to be 32.1 nM (input ligand: FMN 200 uM) and 21.5 nM (input ligand: none).
As to “UUUUUACAUGAGGAUCACCCAUGUGAGGAUAUGGAGCGCGACCGCGCGGUCGCGUACACCAGAAGGCGCAGGAU [1st #76] (Eterna round: R97, puzzle: Exclusion 1)”, the “apparent KD of MS2 coat protein” value by setting is: (input ligand: FMN 200 uM) 89.7 nM; (input ligand: none) 46.6 nM.
Turning to “UAGCGACCAUACAUGAGGAUCACCCAUGUGAAUGCCCACCGCGAGGAUAUCGAGUCCACUCGGGCCGAGAAGGCGCGACCUCAA [Eternabot solution 43] (Eterna round: R96, puzzle: Exclusion NG 3)”, the “apparent KD of MS2 coat protein” value was 34.8 nM (input ligand: FMN 200 uM), 16.1 nM under setting [1] and 35.5 nM (input ligand: none).
In the case of “UCUUAUUGAGGAUAUACAUUAAAAUACAUGAGGAUCACCCAUGUUCUUCAAUGUAUAUAUGUAGAAGGCAGAAGAU [Mat - Exclusion 5 - JL Mod - D26] (Eterna round: R97, puzzle: Exclusion 5)”, the “apparent KD of MS2 coat protein” value was 155 nM (input ligand: FMN 200 uM) and 36.9 nM (input ligand: none).
